We go through one molecule from patent US20170281764A1 (JN BIOSCIENCES, published 2017).

Common to all, as to assay: flow cytometry titration on CHO-K1 cells transiently expressing the HA-tagged TIGIT mutant, Alexa488 anti-human IgG detection, four-parameter fit of percent of control, nM is from the concentration axis and paragraph 252
A general note: In flow cytometry, cells or beads pass a laser one at a time.

One assay deals with T1, I88A.
T1 construct: also called HA-tagged human TIGIT with mutation I88A, on CHO-K1 cells
T1 single chain: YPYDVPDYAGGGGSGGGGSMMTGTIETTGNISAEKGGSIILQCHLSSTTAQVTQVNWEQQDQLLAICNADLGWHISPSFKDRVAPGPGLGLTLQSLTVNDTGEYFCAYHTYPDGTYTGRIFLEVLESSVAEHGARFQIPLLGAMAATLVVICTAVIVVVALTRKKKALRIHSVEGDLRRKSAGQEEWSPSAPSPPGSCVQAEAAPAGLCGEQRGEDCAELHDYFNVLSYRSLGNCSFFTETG
The method, then:
(§1) For flow cytometry analysis of the anti-hTIGIT antibody binding epitope, HA-tagged human TIGIT proteins with or without single amino acid mutation were transiently transfected into CHO-K1 cells. After 24 hr, transfected cells were suspended in HBSS buffer (Thermo Fisher Scientific, Cat#14175095), and incubated with HuTIG1-IgG1.AA antibody at varying concentrations in 50 μL volume. After 1 hr incubation at 4° C., cells were washed and a second incubation with 50 μL Alexa488 conjugated anti-human IgG(H+L) secondary antibody (Thermo Fisher Scientific, Cat#A-11013) was performed to detect cells bound by antibody. Cells were incubated with an anti-HA antibody (Sigma, Cat# H7411) as a positive control, and non-transfected CHO-K1 cells were used as a negative control. The cells were analyzed on an Attune NxT Cytometer (Thermo Fisher Scientific) and the data were processed using FlowJo software. For each mutant, the saturating antibody binding MFI (mean fluorescence intensity) were normalized to 100% POC (percent of control), and no primary antibody binding control MFI were normalized to 0% POC. Data were then fit to a four parameter non-linear sigmoidal curve using GraphPad Prism 7 curve fitting using following formula: Y=Bottom+(Top−Bottom)/(1+10^{((Log EC}^₅₀^{-X)*HillSlope)}).
(§2) All of these residues co-locate to one discrete region on the front ([…] structure of the TIGIT IgV extracellular domain (FIG. 28).

The next assay concerns the target T2, T96A.
T2 construct: also called HA-tagged human TIGIT with mutation T96A, on CHO-K1 cells
T2 single chain: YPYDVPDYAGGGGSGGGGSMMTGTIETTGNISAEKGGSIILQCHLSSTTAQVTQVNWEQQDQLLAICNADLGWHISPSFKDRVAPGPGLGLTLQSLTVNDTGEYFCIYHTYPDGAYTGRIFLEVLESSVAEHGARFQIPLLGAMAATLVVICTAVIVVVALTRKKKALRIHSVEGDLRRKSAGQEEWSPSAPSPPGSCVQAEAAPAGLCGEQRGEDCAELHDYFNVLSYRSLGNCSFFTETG
The method, then:
as §1, §2

A further assay addresses T3, I47A.
T3 construct: also called HA-tagged human TIGIT with mutation I47A, on CHO-K1 cells
T3 single chain: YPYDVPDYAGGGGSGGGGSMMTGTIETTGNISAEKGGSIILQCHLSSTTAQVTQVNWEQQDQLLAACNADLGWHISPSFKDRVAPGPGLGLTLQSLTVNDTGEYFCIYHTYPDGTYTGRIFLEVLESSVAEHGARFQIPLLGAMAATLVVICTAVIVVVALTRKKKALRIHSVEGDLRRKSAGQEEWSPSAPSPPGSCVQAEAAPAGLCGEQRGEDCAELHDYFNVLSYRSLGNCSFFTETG
The method, then: as §1, §2

The target in assay [1] is T4, HA-tagged human TIGIT with mutation D51A, on CHO-K1 cells (human, UniProt Q495A1 22-244).
T4 construct: Built as for m17
T4 sequence: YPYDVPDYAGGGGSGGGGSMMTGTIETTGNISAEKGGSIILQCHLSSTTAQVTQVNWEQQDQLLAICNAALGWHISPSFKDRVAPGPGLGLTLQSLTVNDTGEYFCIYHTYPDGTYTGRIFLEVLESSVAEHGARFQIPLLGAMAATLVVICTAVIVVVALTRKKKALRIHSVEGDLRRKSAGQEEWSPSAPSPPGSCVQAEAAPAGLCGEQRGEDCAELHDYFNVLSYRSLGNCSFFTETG
As for the experimental part: as §1, §2

B1: HuTIG1-IgG1.AA (humanized IgG1/kappa form of TIG1, L234A/L235A) (antibody)
heavy: not shown
light: DIQMTQSPSSLSASVGDRVTITCRASKSISKYLAWYQQKPGKAPKLLIYSGSTLQSGVPSRFSGSGSGTDFTLTISSLQPEDFATYYCQQHNEYPWTFGGGTKVEIKRTVAAPSVFIFPPSDEQLKSGTASVVCLLNNFYPREAKVQWKVDNALQSGNSQESVTEQDSKDSTYSLSSTLTLSKADYEKHKVYACEVTHQGLSSPVTKSFNRGEC
notes: Mature full chains; also called humanized TIG1
B1: the EC50 (usually the concentration needed to bring the measured effect to its halfway point) in the assay with I88A amounted to 0.591 nM; with T96A it was 1.36 nM; with I47A, 1.27 nM; in assay [1] it was 30.5 nM.
